Assay results from patent US20260028422A1 (CONCEPT TO MEDICINE BIOTECH, published 2026).
Read-outs that look alike come from different tables or passages of the source.

T1: human MerTK expressed on cells (human, UniProt Q12866 21-999)
T1 construct: whole, on cells; also called CHO-K1-hMerTK; CHO-K1-MerTK
T1 sequence (looked up): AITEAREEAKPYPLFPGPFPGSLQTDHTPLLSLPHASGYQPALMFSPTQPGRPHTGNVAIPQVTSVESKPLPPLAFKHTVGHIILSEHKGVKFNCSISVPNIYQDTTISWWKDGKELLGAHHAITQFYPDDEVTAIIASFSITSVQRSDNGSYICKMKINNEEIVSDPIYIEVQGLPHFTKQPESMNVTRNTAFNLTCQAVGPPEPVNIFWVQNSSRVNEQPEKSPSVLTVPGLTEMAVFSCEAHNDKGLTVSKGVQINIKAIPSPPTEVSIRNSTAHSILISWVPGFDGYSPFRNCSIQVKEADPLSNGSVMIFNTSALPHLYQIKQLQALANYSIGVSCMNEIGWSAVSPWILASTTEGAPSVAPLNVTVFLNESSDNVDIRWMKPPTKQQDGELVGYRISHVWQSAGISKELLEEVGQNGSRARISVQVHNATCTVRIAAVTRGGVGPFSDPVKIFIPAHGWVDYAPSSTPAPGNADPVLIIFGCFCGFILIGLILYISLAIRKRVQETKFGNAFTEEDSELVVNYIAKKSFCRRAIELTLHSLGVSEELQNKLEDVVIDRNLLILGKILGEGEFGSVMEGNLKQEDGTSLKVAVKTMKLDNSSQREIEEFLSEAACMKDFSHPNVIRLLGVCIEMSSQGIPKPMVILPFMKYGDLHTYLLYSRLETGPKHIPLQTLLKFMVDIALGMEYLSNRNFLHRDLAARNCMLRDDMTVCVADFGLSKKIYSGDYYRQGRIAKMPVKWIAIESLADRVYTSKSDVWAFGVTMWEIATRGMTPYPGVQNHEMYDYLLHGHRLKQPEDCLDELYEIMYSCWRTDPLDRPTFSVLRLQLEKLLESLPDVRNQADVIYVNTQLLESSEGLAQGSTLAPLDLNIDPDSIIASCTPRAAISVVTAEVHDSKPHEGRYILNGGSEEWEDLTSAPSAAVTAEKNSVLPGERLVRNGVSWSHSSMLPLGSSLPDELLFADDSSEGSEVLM

T2: Human MerTK-mouse Fc fusion protein (human, UniProt Q12866 21-499, limits assumed)
T2 construct: also called hMerTK; Human MerTK-mouse Fe fusion protein
T2 sequence (looked up): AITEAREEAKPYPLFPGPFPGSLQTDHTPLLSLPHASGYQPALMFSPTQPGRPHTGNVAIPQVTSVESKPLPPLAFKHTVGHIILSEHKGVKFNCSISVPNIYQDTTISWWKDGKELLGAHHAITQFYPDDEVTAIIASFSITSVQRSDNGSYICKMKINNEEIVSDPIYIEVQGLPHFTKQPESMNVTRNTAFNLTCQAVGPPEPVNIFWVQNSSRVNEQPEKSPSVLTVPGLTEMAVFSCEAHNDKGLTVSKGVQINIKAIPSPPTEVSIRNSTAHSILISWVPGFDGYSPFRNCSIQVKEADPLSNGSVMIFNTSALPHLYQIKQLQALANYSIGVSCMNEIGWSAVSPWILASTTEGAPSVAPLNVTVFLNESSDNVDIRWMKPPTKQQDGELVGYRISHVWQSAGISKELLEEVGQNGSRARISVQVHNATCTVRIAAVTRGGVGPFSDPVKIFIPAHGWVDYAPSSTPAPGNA

B1: h13B4.v16 benchmark antibody (antibody, V domains shown)
VH: EVQLVESGEGLVQPGGSLRLSCAASGFSLSSYAMGWVRQAPGKGLEYVGIINSYGNTYYANWAKGRFTISRDNSKNTVYLQMGSLRAEDMAVYYCARDPGVSSNLWGRGTLVTVSS
VL: DIQMTQSPSTLSASVGDRVTITCQASQNIYSGLAWYQQKPGKAPKLLIYGASKLASGVPSRFSGSGSGTEFTLTISSLQPDDFATYYCQATYYSSNSVAFGGGTKVEIK
B2: 252H9D5 chimeric monoclonal antibody (antibody, V domains shown)
VH: QVTLRESGPGILQPSQTLSLTCSFSGFSLNTFGMGVGWIRQSSGKGLKWLAHIWWDDDKFYNPALKSRLTISKDTSKNQVFLKIANVDTTDTATYYCARIEGGLPYYYDYWGQGTPLIVSS
VL: DIVMTQSQKIMSTSVGDRISVTCKASQIVGTNVVWYQQKPGQSPKALIYSTSYRYSGVPDRFTGSRSGTDFTLTISNVQSEDLANYFCQQYNSYPFTFGSGTKLEIK

Assays:
[1] = molecular target: T1, human MerTK expressed on cells; experiment: FACS on SK-MEL-5 cells expressing human MerTK, geometric mean
Method: (§1) To evaluate the binding properties on MerTK expressed on cells, the chimeric monoclonal antibodies were analyzed for their binding to human melanoma cell line SK-MEL-5 expressing MerTK by FACS analysis. Briefly, SK-MEL-5 cells were firstly incubated with 5-fold serially diluted chimeric mAbs starting at 20 nM at 4° C. for 30 mins. After washing by FACS buffer, the PE conjugated anti-human IgG secondary antibody was incubated with the cell-antibody complex in the wells at 4° C. for 30 mins to detect the antibodies those bound to the cells. The MFI of PE was evaluated by QuantAnalyzer 16.

[2] = molecular target: T1, human MerTK expressed on cells; experiment: as above; remark: listed apart in the source
Method: as §1

[3] = molecular target: T2, Human MerTK-mouse Fc fusion protein; experiment: FACS blocking: binding of human MerTK-mouse Fc to Jurkat cells overexpressing human Gas6, MFI (AF488)
Method: (§2) To evaluate the blocking effects of anti-hMerTK mAbs on hMerTK binding to its ligand hGas6, a receptor blocking assay was set-up. Briefly, Jurkat cells engineered to overexpress human Gas6 were added to the 96-well microplates at a density of 5×10⁴ cells per well. Human MerTK-mouse Fe fusion protein (50 μL/well, […]) and the MerTK chimeric antibodies with a 3-fold serial dilution starting from 120 nM at a volume of 50 μL were added to the 96-well plates and incubated at 4° C. for 30 mins. After washing with FACS buffer, the plates were incubated with diluted Alex Fluor 488 conjugated goat anti-mouse IgG antibody for 30 mins at 4′C. After washing, the plates were analyzed by QuantAnalyzer 16.

[4] = molecular target: T1, human MerTK expressed on cells; experiment: FACS on CHO-K1 cells overexpressing human MerTK, MFI (PE)
Method: To evaluate the binding property to the antigen expressed on the cells, the chimeric monoclonal antibodies were analyzed for their binding to human MerTK overexpressed on CHO-K1 cells by FACS. Briefly, human MerTK overexpressing CHO-K1 (CHO-K1-MerTK) cells were firstly incubated with 5-fold serially diluted mAbs starting at 20 nM at 4° C. for 1 hour. After washing with FACS buffer, the PE conjugated anti-human IgG-Fc secondary antibody was added to each well and incubated at 4° C., for 30 mins. The mean fluorescence intensity (MFI) of PE were evaluated by QuantAnalyzer 16.

[5] = molecular target: T2, Human MerTK-mouse Fc fusion protein; experiment: FACS blocking: binding of human MerTK-mouse Fc to Jurkat cells overexpressing human Gas6, MFI (AF488); remark: listed apart in the source
Method: as §2

| Binder | EC50 [1] [nM] | Top [1] [Geometric Mean] | EC50 [2] [nM] | Top [2] [Geometric Mean] | IC50 [3] [nM] | EC50 [4] [nM] | Top [4] | IC50 [5] [nM] |
| --- | --- | --- | --- | --- | --- | --- | --- | --- |
| B1 | 0.12 | 4530 | 0.092 | 4520 | 0.836 | 0.16 | 4950 MFI (PE) | 0.856 |
| B2 | – | – | 0.053 | 4790 | – | – | – | 0.824 |
